From patent US20100004431A1 (Xencor, published 2010)
Read-outs that look alike come from different tables or passages of the source.

T1: CD25 (R&D systems cat. #223-2A/CF) (UniProt P01589 22-213, limits assumed)
T1 construct: Bought soluble protein
T1 sequence (looked up): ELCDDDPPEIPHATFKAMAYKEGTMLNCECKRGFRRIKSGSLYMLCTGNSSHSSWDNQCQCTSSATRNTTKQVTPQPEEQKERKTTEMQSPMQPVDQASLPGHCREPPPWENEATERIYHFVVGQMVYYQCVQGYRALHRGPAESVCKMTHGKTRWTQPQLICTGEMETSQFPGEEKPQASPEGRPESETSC


How the values were obtained:
[1] = molecular target: T1, CD25 (R&D systems cat. #223-2A/CF); experiment: Biacore (SPR); antibody captured on Protein A, CD25 injected
Description: (§1) Binding was measured by injection of two-fold serial dilutions of CD25 (0 nM to 50 nM; R&D systems) in buffer at 25° C. with a flow rate of 25-30 μL/min for 2 min followed by a dissociation phase of 4-5 min. Association rates (kₒₙ) and dissociation rates (koff) were calculated using a simple one-to-one Langmuir binding model (BIAcore Evaluation Software version 3.2). The equilibrium dissociation constant (Kd) was calculated as the ratio of koff/kₒₙ).

[2] = molecular target: T1, CD25 (R&D systems cat. #223-2A/CF); experiment: SPR (Biacore)
Description: as §1

[3] = molecular target: T1, CD25 (R&D systems cat. #223-2A/CF); experiment: Biacore blocking assay; antibody injected over CD25 coupled to a CM5 chip, then 100 nM rh-IL2; blocked ligand IL-2
Description: The chip was regenerated after each cycle by injection of glycine buffer @ pH 1.5 for 30 sec at 10 μL/min.

[4] = molecular target: T1, CD25 (R&D systems cat. #223-2A/CF); experiment: Biacore (SPR); antibody captured on Protein A, CD25 injected; remark: listed apart in the source
Description: as §1

[5] = molecular target: T1, CD25 (R&D systems cat. #223-2A/CF); experiment: SPR (Biacore), antibody captured on Protein A, CD25 injected; separate runs
Description: as §1

VEGF [6] = molecular target: T2, VEGF (UniProt P15692-4 27-191, limits assumed); experiment: SPR (Biacore), VEGF on CM5 chip, Fab injected
Description: (§2) For kinetic analysis of anti-VEGF antibodies, VEGF was coupled to an activated CM5 biosensor chip using standard NHS-EDC chemistry by injecting 200 nM VEGF at a flow rate of 2 μL/min for 10 min. […] Association rates (kₒₙ) and dissociation rates (koff) were calculated using a simple one-to-one Langmuir binding model (BIAcore Evaluation Software version 3.2). The equilibrium dissociation constant (Kd) was calculated as the ratio of koff/kₒₙ.

VEGF [7] = molecular target: T2, VEGF; experiment: Biacore (SPR); Fab injected over immobilized VEGF
Description: as §2

VEGF [8] = molecular target: T2, VEGF; experiment: Biacore (SPR); Fab injected over immobilized VEGF; remark: listed apart in the source
Description: as §2

T2 sequence (P15692 other isoform, or with tags, fused parts or gaps limits assumed): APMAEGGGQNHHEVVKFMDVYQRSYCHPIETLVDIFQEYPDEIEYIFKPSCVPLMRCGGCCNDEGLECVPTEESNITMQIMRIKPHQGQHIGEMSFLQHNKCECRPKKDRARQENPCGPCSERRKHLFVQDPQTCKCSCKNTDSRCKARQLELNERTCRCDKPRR

| Binder | Fold change in Kd vs. H0L0 [1] | Kd [1] | koff [1] | kon [1] | fold tighter binding than anti-CD25 H1L1 [2] | further results |
| --- | --- | --- | --- | --- | --- | --- |
| anti-CD25 H1.14L1.20 (antibody, IgG1, V domains shown, IgG1 format) VH: not shown VL: EIVLTQSPATLSLSPGERATLSCRASQSVSYLHWYQQKPGQAPRLLIYTTSNRATGIPARFSGSGSGTDFTLTISSLEPEDFAVYYCHQRSTYPLTFGSGTKLEIK | -1.9 fold | 490 pM | 0.00029 s⁻¹ | 580000 M⁻¹ s⁻¹ | 1.8 fold | – |
| anti-CD25 H1.12L1 (antibody, IgG1, V domains shown, IgG1 format) VH: not shown VL: QIVLTQSPATLSLSPGERATLSCRASSSISYMHWFQQKPGQSPQLLIYTTSNLASGVPARFSGSGSGTDYTLTISSLQPEDFAVYYCHQRSTYPLTFGSGTKLEIK | 2.3 fold | 110 pM | 0.00012 s⁻¹ | 1.1e+06 M⁻¹ s⁻¹ | 8 fold | – |
| anti-CD25 H1.23L1.43 (antibody, IgG1, V domains shown, IgG1 format) VH: not shown VL: EIVLTQSPATLSLSPGERATLSCRASQSVSYLHWYQQKPGQAPRLLIYTTSNRATGIPARFSGSGSGTDYTLTISSLQPEDFAVYYCHQRSTYPLTFGSGTKLEIK | 1.6 fold | 160 pM | 0.00012 s⁻¹ | 730000 M⁻¹ s⁻¹ | – | IC50 (read off the curve) [3]: ~40000 pM |
| anti-CD25 H1.23L1 (antibody, IgG1, V domains shown, IgG1 format) VH: not shown VL: QIVLTQSPATLSLSPGERATLSCRASSSISYMHWFQQKPGQSPQLLIYTTSNLASGVPARFSGSGSGTDYTLTISSLQPEDFAVYYCHQRSTYPLTFGSGTKLEIK | 1.3 fold | 200 pM | 0.00019 s⁻¹ | 950000 M⁻¹ s⁻¹ | 4.4 fold | – |
| anti-CD25 H1.22L1 (antibody, IgG1, V domains shown, IgG1 format) VH: QVQLVQSGAEVKKPGASVKVSCKASGYTFTSYRMHWVRQAPGQGLEWMGWINPNSGGTNYAQKFQGRVTITRDTSISTAYMELSRLRSDDTAVYYCARGGGVFDYWGQGTLVTVSS VL: QIVLTQSPATLSLSPGERATLSCRASSSISYMHWFQQKPGQSPQLLIYTTSNLASGVPARFSGSGSGTDYTLTISSLQPEDFAVYYCHQRSTYPLTFGSGTKLEIK | 1.5 fold | 180 pM | 0.00017 s⁻¹ | 980000 M⁻¹ s⁻¹ | 4.9 fold | – |
| anti-CD25 H1.14L1 (antibody, IgG1, V domains shown, IgG1 format) VH: not shown VL: QIVLTQSPATLSLSPGERATLSCRASSSISYMHWFQQKPGQSPQLLIYTTSNLASGVPARFSGSGSGTDYTLTISSLQPEDFAVYYCHQRSTYPLTFGSGTKLEIK | -1.4 fold | 360 pM | 0.00028 s⁻¹ | 770000 M⁻¹ s⁻¹ | 2.4 fold | – |
| anti-CD25 H0L0 (antibody, V domains shown, Chimeric form of the anti-TAC antibody, in IgG1 format; also called chimeric anti-CD25 H0L0; anti-TAC H0L0) VH: QVQLQQSGAELAKPGASVKMSCKASGYTFTSYRMHWVKQRPGQGLEWIGYINPSTGYTEYNQKFKDKATLTADKSSSTAYMQLSSLTFEDSAVYYCARGGGVFDYWGQGTTLTVSS VL: QIVLTQSPAIMSASPGEKVTITCSASSSISYMHWFQQKPGTSPKLWIYTTSNLASGVPARFSGSGSGTSYSLTISRMEAEDAATYYCHQRSTYPLTFGSGTKLELK | – | 260 pM | 0.00018 s⁻¹ | 670000 M⁻¹ s⁻¹ | – | Kd [4]: 90 pM; koff [4]: 0.00013 s⁻¹; kon [4]: 1.6e+06 M⁻¹ s⁻¹; Kd [5]: 90 to 300 pM; IC50 (read off the curve) [3]: ~40000 pM |
| anti-VEGF H1.33L1.51 (Fab, V domains shown, Fab format, purified by Ni-NTA chromatography) VH: QVQLVQSGSELKKPGASVKVSCKASGYTFTNYGMNWVRQAPGQGLEWMGWINTYTGNPTYAQGFTGRFVFSLDTSVSTAYLQISSLKAEDTAVYYCAKYPHYYGSSHWYFDVWGAGTLVTVSS VL: DIQMTQSPSSLSASVGDRVTITCQASQDISNYLNWYQQKPGKAPKVLIYFTSSLHSGVPSRFSGSGSGTDYTLTISSLQPEDFATYYCQQYDNLPWTFGGGTKLEIK | – | – | – | – | – | fold difference in affinity against the chimeric antibody anti-VEGF H0L0 (VEGF [6]): ≤ 3 fold; Fold change in Kd vs. H0L0 (VEGF [7]): -2.5 fold; Kd (VEGF [7]): 3500 pM; koff (VEGF [7]): 0.00029 s⁻¹; kon (VEGF [7]): 83000 M⁻¹ s⁻¹ |
| anti-VEGF H1.33L1.55 (Fab, V domains shown, Fab format, purified by Ni-NTA chromatography) VH: QVQLVQSGSELKKPGASVKVSCKASGYTFTNYGMNWVRQAPGQGLEWMGWINTYTGNPTYAQGFTGRFVFSLDTSVSTAYLQISSLKAEDTAVYYCAKYPHYYGSSHWYFDVWGAGTLVTVSS VL: DIQMTQSPSSLSASVGDRVTITCQASQDISNYLNWYQQKPGKAPKVLIYFASNLETGVPSRFSGSGSGTDYTLTISSLQPEDFATYYCQQYDNLPWTFGGGTKLEIK | – | – | – | – | – | fold difference in affinity against the chimeric antibody anti-VEGF H0L0 (VEGF [6]): ≤ 3 fold; Fold affinity change relative to H0L0 (VEGF [8]): -2.7 fold; Fold change in Kd vs. H0L0 (VEGF [7]): -2.7 fold; Kd (VEGF [7]): 3800 pM; koff (VEGF [7]): 0.00028 s⁻¹; kon (VEGF [7]): 80000 M⁻¹ s⁻¹ |
